# According to patent US20240255509A1, “COMPOSITIONS AND METHODS RELATED TO K180 DIMETHYLATED H1.0 PROTEIN” (Aelan Cell Technologies, Inc., priority 2016, published 2024):
# B1: G9A: recombinant G9A methyltransferase (NEB, M0235S) (protein, UniProt Q96KQ7 2-1210, looked up)
# Histone-lysine …: AAAAGAAAAAAAEGEAPAEMGALLLEKETRGATERVHGSLGDTPRSEETLPKATPDSLEPAGPSSPASVTVTVGDEGADTPVGATPLIGDESENLEGDGDLRGGRILLGHATKSFPSSPSKGGSCPSRAKMSMTGAGKSPPSVQSLAMRLLSMPGAQGAAAAGSEPPPATTSPEGQPKVHRARKTMSKPGNGQPPVPEKRPPEIQHFRMSDDVHSLGKVTSDLAKRRKLNSGGGLSEELGSARRSGEVTLTKGDPGSLEEWETVVGDDFSLYYDSYSVDERVDSDSKSEVEALTEQLSEEEEEEEEEEEEEEEEEEEEEEEEDEESGNQSDRSGSSGRRKAKKKWRKDSPWVKPSRKRRKREPPRAKEPRGVNGVGSSGPSEYMEVPLGSLELPSEGTLSPNHAGVSNDTSSLETERGFEELPLCSCRMEAPKIDRISERAGHKCMATESVDGELSGCNAAILKRETMRPSSRVALMVLCETHRARMVKHHCCPGCGYFCTAGTFLECHPDFRVAHRFHKACVSQLNGMVFCPHCGEDASEAQEVTIPRGDGVTPPAGTAAPAPPPLSQDVPGRADTSQPSARMRGHGEPRRPPCDPLADTIDSSGPSLTLPNGGCLSAVGLPLGPGREALEKALVIQESERRKKLRFHPRQLYLSVKQGELQKVILMLLDNLDPNFQSDQQSKRTPLHAAAQKGSVEICHVLLQAGANINAVDKQQRTPLMEAVVNNHLEVARYMVQRGGCVYSKEEDGSTCLHHAAKIGNLEMVSLLLSTGQVDVNAQDSGGWTPIIWAAEHKHIEVIRMLLTRGADVTLTDNEENICLHWASFTGSAAIAEVLLNARCDLHAVNYHGDTPLHIAARESYHDCVLLFLSRGANPELRNKEGDTAWDLTPERSDVWFALQLNRKLRLGVGNRAIRTEKIICRDVARGYENVPIPCVNGVDGEPCPEDYKYISENCETSTMNIDRNITHLQHCTCVDDCSSSNCLCGQLSIRCWYDKDGRLLQEFNKIEPPLIFECNQACSCWRNCKNRVVQSGIKVRLQLYRTAKMGWGVRALQTIPQGTFICEYVGELISDAEADVREDDSYLFDLDNKDGEVYCIDARYYGNISRFINHLCDPNIIPVRVFMLHQDLRFPRIAFFSSRDIRTGEELGFDYGDRFWDIKSKYFTCQCGSEKCKHSAEAIALEQSRLARLDPHPELLPELGSLPPVNT
# Tests used:
# Assay type in all cases: biochemical
# [1] = target: T1, K180me2 peptide (H1.0 AA 165-182) (Homo sapiens, UniProt P07305); assay: In vitro methylation with G9A, products identified by LC-MS; conditions: K180me2 peptide as substrate
# T1 construct: the K180me2 peptide (H1.0 AA 165-182) was used as a substrate; purchased ThermoFisher Scientific (peptide); NEB (G9A) M0235S (G9A)
# Experimental: In order to identify the precise sites of methylation by G9A and GLP methyltransferases on histone H1.0, in vitro methylation assays were performed and subsequently analyzed by Liquid Chromatography and High-resolution Mass Spectrometry (LC-MS) analysis. Methylation reactions were set up using either G9A methyltransferase (NEB, M0235S, Lot #0031201) or GLP methyltransferase (Cayman Chemical, 10755). The methyl donor in each reaction was unlabeled S-Adenosyl-L-Methionine (NEB, B9003S). The H1.0 substrate in each reaction was either unmodified H1.0 peptide labeled with biotin (ThermoFisher Scientific, Biotin-[…] (SEQ ID NO:75)), di-methylated H1.0 peptide (ThermoFisher Scientific, Biotin-[…]^(me2)PK (SEQ ID NO:76)), or full-length recombinant human H1.0 (NEB, M2501S). Methylation reactions were set up in triplicate for each condition as follows: 1×HMT reaction buffer (50 mM Tris-HCl, 5 mM MgCl2, 4 mM dithiothreitol, pH 9.0); 10 U G9A or GLP Methyltransferase; 3.2 mM S-Adenosyl-L-Methionine; 500 ng unmodified or modified H1.0 peptide, or 1 μg full-length protein; final volume 10 μl. As controls, reactions were set up as above but without any methyltransferase present. […]
# (§1) For the Liquid Chromatography and High-resolution Mass Spectrometry (LC-MS) analysis, samples were prepared as described above and about 1 μg o the product was injected onto a Thermo Scientific Easy nLC system configured with a 10 cm×100 um trap column and a 25 cm×100 um ID resolving column. […] This ensured optimal full-scan data for quantification. […]
# (§2) Protein identification was performed using Thermo Scientific Proteome Discoverer version 1.4 (including Sequest and Percolator algorithms) using RefSeqHuman sequence database. […] Protein quantification was performed using Pinpoint version 1.4 software. The Pinpoint quantification workflow included importing the Proteome Discoverer .msf files as spectral libraries. Identified peptides were subsequently quantified in MS .raw files using the Pinpoint peak finding, chromatographic alignment and area calculation algorithms. […]
# [2] = target: T2, unmodified H1.0 peptide ([…] (SEQ ID NO:42)) (Homo sapiens, UniProt P07305); assay: as above
# T2 construct: purchased ThermoFisher Scientific (peptide); NEB (G9A) M0235S (G9A)
# Experimental: (§3) In order to identify the precise sites of methylation by G9A and GLP methyltransferases on histone H1.0, in vitro methylation assays were performed and subsequently analyzed by Liquid Chromatography and High-resolution Mass Spectrometry (LC-MS) analysis. Methylation reactions were set up using either G9A methyltransferase (NEB, M0235S, Lot #0031201) or GLP methyltransferase (Cayman Chemical, 10755). The methyl donor in each reaction was unlabeled S-Adenosyl-L-Methionine (NEB, B9003S). […]
# as §1, §2
# H1.0 peptide = target: T3, H1.0 peptide (Homo sapiens, UniProt P07305); assay: Radiolabel in vitro methylation assay with G9A; conditions: 10 U G9A, 37° C. 1 hour, autoradiography
# T3 construct: purchased ThermoFisher Scientific (peptide); NEB (G9A) M0235S (G9A)
# Experimental: In order to visualize methylation of H1.0 peptide by G9A methyltransferase in vitro, a methylation assay was performed incorporating a radiolabelled methyl donor, which allows for visualization of methylated peptide on a gel after autoradiography exposure. The following methylation reaction was set up in a 1.5 ml tube: 1×HMT reaction buffer (50 mM Tris-HCl, 5 mM MgCl2, 4 mM dithiothreitol, pH 9.0), 10 U G9A Methyltransferase (NEB, M0235S, Lot #0031201), 3.2 mM Adenosyl-L-Methionine, S-[Methyl-3H] (Perkin Elmer, NET155H, Lot #1664720), 10 μg H1.0 peptide (ThermoFisher Scientific, Biotin-[…] (SEQ ID NO:75)), final volume 10 μl. A control reaction as above but without H1.0 peptide was also created. Reactions were incubated in a thermocycler at 37° C. for 1 hour. Reactions were stopped by incubating on ice for 5 minutes, and subsequently resolved on a 16.5% Tricine gel (BioRad, 4563063). Gels were soaked in 30% methanol, 5% glycerol for 30 minutes before vacuum drying at RT for 24 hours. Autoradiography analysis of dried gels with a phosphorimager (Molecular Dynamics) was then performed to assess effective methylation of H1.0 peptide with methyl-3H groups by the G9A methyltransferase.
# The methylation reaction was subsequently resolved on a gel and visualized via autoradiography. […] A control reaction lacking H1.0 peptide yielded no tritium-labeled products.
# [3] = target: T4, recombinant human H1.0 protein (Homo sapiens, UniProt P07305); assay: In vitro methylation with G9A, products identified by LC-MS; conditions: 1 μg full-length protein
# T4 construct: full-length recombinant human H1.0 (NEB, M2501S); purchased NEB M2501S (H1.0); M0235S (G9A)
# Experimental: as §3, §1, §2
molecule,measurement,setting,value
B1,"H1.0K166me1K180me2, % of the total peptide in the reaction",[1],1.27%
same,"H1.0K174me1K180me3, % of the total peptide in the reaction",[1],1.06%
same,"H1.0K174me3K175me3K177me1K180me2, % of the total peptide in the reaction",[1],0.35%
same,"peptides dimethylated at H1.0K180, % of all peptides","[2]; 10 U enzyme, 3.2 mM S-Adenosyl-L-Methionine, 37° C. 1 hour, spectral counts",99.9%
same,estimated methylation efficiency for K180 dimethylation,"[2]; other lysines (K166, K174, K175 or K177) not dimethylated",about 99%
same,methylation of H1.0 peptide with tritium-labeled methyl groups (band at 4 kDa),H1.0 peptide,capable of methylating H1.0 peptide
same,sites of methylation on full-length H1.0,[3],"methylates C-terminal lysine residues, including H1.0K180me2"
